Columns and labels:
[1] = target: the molecule itself; experiment: […]; room temperature; […]; 20 mM HEPES, 150 mM NaCl, 2 mM DTT; […]
[2] = target: T1, Cul3NΔ22 (human Cul3 N-terminal domain, residues 23–388, I342R L346D) (human, UniProt Q13618 23-388, I342R | L346D); experiment: ITC; 25 °C; 20 mM HEPES, 200 mM NaCl, 1 mM DTT; […] (70–[…]) […]; details: both partners purified
T1 construct: also called Cul3–NTD; Cu3NΔ22

[3] = target: T2, Cul3N (human Cul3 N-terminal domain, residues 1–388, I342R L346D) (human, UniProt Q13618 1-388, I342R | L346D); experiment: as above; details: both partners purified
T2 construct: also called Cul3–NTD
T2 sequence (Q13618 1-388 I342R/L346D): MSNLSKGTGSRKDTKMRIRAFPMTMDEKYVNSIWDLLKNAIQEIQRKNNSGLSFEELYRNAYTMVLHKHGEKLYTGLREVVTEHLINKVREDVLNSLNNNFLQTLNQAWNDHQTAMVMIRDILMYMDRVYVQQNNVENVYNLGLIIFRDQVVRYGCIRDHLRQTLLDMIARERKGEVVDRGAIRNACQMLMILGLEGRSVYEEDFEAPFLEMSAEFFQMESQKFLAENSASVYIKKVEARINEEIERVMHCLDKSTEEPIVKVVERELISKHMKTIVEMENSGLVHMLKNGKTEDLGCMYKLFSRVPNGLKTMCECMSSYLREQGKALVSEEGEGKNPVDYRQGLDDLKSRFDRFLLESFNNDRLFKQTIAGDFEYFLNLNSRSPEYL

T1 sequence (Q13618 23-388 I342R/L346D): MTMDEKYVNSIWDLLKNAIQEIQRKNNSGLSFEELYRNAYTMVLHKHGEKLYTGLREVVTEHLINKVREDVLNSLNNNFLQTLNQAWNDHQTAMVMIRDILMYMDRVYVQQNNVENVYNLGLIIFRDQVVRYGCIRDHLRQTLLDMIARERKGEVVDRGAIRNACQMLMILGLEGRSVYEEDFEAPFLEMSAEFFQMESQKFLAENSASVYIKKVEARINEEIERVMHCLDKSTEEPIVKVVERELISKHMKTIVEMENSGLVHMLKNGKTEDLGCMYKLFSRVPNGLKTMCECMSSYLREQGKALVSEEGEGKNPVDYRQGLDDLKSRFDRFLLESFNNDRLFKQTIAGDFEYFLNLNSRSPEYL

B1: A55BB (A55 BTB-BACK domain, residues 1–250), wild type (domain or fragment)
chain: MNNSSELIAVINGFRNSGRFCDISIVINDERINAHKLILSGASEYFSILFSNNFIDSNEYEVNLSHLDYQSVNDLIDYIYGIPLSLTNDNVKYILSTADFLQIGSAITECENYILKNLCSKNCIDFYIYADKYNNKKIESASFNTILQNILRLINDENFKYLTEESMIKILSDDMLNIKNEDFAPLILIKWLESTQQSCTVELLRCLRISLLSPQVIKSLYSHQLVSSIYECITFLNNIAFLDESFPRYH
**Q.** What does the source list for B1?
**A.** stoichiometry N [1]: 2; Kd [2]: 5.3 nM; dH [2]: -9.9 kcal/mol; Kd [3]: < 1 nM; dH [3]: -17.7 kcal/mol

Reference: article PMC6484134 (The Journal of Biological Chemistry, 2019)
